Among the data in the Immune Epitope Database (IEDB) are IC50 values, retold here.

Some results are limits rather than exact numbers.

One assay addresses HLA-A*02:01. The assay is described as follows: IEDB peptide-MHC binding, purified MHC/competitive/radioactivity; ≥ and ≤ were set here for values at or beyond the usual limits of such assays. Particulars: source organism: Bordetella pertussis.
For the sequence YVLVKTNMV, the IC50 was found to be 3.96 µM.

The target in a further assay is HLA-B*07:02. Described as above. The settings on record: source organism: Bordetella pertussis.
Consider LKRPGSSPM, for which the IC50 was 3.84 µM.

As to EPASANTLL, the half-maximal inhibitory concentration (IC50) came to 15 µM.

For a further assay, the target named is HLA-B*35:01. The description is as above. Particulars: source organism: Bordetella pertussis.
As for NALAWALML, the IC50 worked out at 6.31 µM. The same measure, in the same setting: to GAASSYFEY belongs 2.67 µM. On the same count and under the same terms, to EPASANTLL belongs 69.9 µM.

A further assay addresses HLA-B*44:03. Described as above. Particulars: source organism: Bordetella pertussis.
On to RELSAAANA, for which the IC50 amounted to 21.1 µM. As for AAQATVVQR, the IC50 is 23.3 µM. As for AEVTDTSPS, the IC50 is 41.2 µM. In the case of GAASSYFEY, the IC50 was determined as 44 µM. On the same count and under the same terms, to YEYIWGLYQ belongs 8.91 µM; to FEPGITTNY, 42.8 µM.

The next assay has as its target HLA-B*53:01. Described as above. The settings on record: source organism: Bordetella pertussis.
Turning to MPIDRKTLC, the IC50 amounted to 1.63 µM. On the same count and under the same terms, to LAANGNGQW belongs 1.67 µM; to PKPKPKAER, at least 78.2 µM; to TAGATPFDI, 4.91 µM.

ASPRRARRA: the 50% inhibitory concentration (IC50) came out at 69.9 µM. Same read-out and setting: to GAASSYFEY belongs 47.3 µM; to LATYQSEYL, at least 78.2 µM.

A further assay has as its target HLA-B*57:01. The description is as above. The settings on record: source organism: Bordetella pertussis.
With KSLPGGKLP, the 50% inhibitory concentration (IC50) turned out to be 5.78 µM. On to ASVSNPGTF, for which the concentration for half-maximal inhibition (IC50) is 40.8 µM.

A word on the IC50: it is the concentration that gives 50% inhibition.
